Assay results reported in patent US20240343803A1 (SHANDONG SIMCERE BIOPHARMACEUTICAL, published 2024).

Columns and labels:
[1] = target: T1, Fusion protein of extracellular domain of human TIGIT and His-tag (human TIGIT ECD-his) (human); assay: BIAcore; KD ratio to TIGIT-CHI-070
T1 chain: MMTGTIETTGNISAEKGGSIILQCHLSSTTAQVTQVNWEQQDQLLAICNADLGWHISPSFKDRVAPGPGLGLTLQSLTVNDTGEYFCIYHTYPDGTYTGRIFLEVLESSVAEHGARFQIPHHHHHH

[2] = target: T2, cynomolgus monkey PVRIG on FlpinCHO-cyno PVRIG cells (cynomolgus monkey, UniProt A0A2K5WVV8 41-322); assay: FACS, FlpinCHO-cyno PVRIG cells
T2 construct: whole, on cells; also called FlpinCHO-cynomolgus monkey PVRIG
T2 sequence: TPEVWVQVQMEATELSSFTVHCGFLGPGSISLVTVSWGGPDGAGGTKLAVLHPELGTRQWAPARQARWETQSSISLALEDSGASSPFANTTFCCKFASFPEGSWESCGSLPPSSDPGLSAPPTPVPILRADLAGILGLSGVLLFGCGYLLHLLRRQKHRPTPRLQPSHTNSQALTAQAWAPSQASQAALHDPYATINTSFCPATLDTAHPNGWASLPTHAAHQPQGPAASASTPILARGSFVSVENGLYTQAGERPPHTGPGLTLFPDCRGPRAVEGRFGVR

[3] = target: T3, full-length cynomolgus monkey TIGIT on CHO-K1 cells (CHO-K1 cynomolgus monkey TIGIT) (cynomolgus monkey); assay: FACS
T3 construct: NCBI XP_015300911.1; also called cynomolgus monkey TIGIT cells
T3 sequence (chain, as listed by the source limits assumed): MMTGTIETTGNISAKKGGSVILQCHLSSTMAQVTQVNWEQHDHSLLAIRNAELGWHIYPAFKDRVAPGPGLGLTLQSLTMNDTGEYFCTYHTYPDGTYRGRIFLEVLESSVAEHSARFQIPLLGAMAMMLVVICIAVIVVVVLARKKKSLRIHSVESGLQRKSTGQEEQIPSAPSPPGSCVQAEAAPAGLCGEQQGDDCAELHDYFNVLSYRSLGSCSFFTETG
Experimental: (§1) The collected cells were washed once with PBS (Hyclone, CAT #SH30256), resuspended to 2×10⁵/50 μL with 1% BSA-PBS. The antibodies were diluted to 80 nM with 1% BSA-PBS (diluted by 3-fold serial dilution for 12 concentration points). The 50 μL cells were then mixed with 50 μL diluted antibodies, and then incubated at 4° C. for 60 minutes. […] After washing twice with PBS, the cell samples were resuspended with 1% BSA-PBS, 100 μL/well and then analyzed by flow cytometry (BD, Canto II). […] [0298] (c) The effect of anti-TIGIT chimeric antibodies blocking the interaction between Bio-CD155-His and CHO-K1 human TIGIT high expression cell strains detected by FACS

[4] = target: T4, full-length human TIGIT on CHO-K1 cells (CHO-K1 human TIGIT) (human, UniProt Q495A1 22-244); assay: FACS, high expression strain
T4 construct: NCBI XP_024309156.1; entry includes the signal peptide; also called high expression strain 1D2; medium expression strain 2D10
T4 sequence: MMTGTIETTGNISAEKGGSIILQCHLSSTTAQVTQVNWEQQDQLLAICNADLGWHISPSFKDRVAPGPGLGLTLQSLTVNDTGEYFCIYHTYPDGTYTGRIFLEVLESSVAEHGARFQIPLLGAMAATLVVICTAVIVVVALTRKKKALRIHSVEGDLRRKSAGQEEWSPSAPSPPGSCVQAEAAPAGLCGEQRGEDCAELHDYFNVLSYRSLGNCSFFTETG
Experimental: as §1

[5] = target: T4, full-length human TIGIT on CHO-K1 cells …; assay: FACS, CHO-K1 human TIGIT low expression strain
Experimental: The collected cells were washed once with PBS (Hyclone, Cat NO. SH30256), resuspended to 2×10⁵/50 μL with 1% BSA-PBS. The antibodies were diluted to 80 nM with 1% BSA-PBS (diluted by 3-fold serial dilution for 12 concentration points). The 50 μL cells were then mixed with 50 μL diluted antibodies, and then incubated at 4° C. for 60 minutes. […] After washing twice with PBS, the cell samples were resuspended with 1% BSA-PBS, 100 μL/well and then analyzed by flow cytometry (BD, Canto II).

[6] = target: T5, human TIGIT ECD-mFc (fusion protein of extracellular domain of human TIGIT and mouse IgG2a Fc fragment) (human); assay: competition cell ELISA; blocked: TIGIT ECD-mFc binding to CHO-K1 CD155 cells
T5 chain: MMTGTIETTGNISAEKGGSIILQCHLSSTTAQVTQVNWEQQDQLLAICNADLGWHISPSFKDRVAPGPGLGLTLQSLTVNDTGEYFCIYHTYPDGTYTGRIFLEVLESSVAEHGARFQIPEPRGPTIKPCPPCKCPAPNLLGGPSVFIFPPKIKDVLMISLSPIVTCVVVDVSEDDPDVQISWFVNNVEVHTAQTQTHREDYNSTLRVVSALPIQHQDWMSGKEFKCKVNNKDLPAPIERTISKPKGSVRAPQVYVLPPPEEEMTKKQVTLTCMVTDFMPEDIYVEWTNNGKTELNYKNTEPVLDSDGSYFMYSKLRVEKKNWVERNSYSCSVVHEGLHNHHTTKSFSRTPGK
Experimental: After discarding the culture supernatant, the cells were fixed with a cell fixation solution (Beyotime, P0098), 50 μL/well, at room temperature for 1 hour. After washing once with 0.05% Tween 20-PBS on the Microplate Washer, the plate was added with 5% skim milk powder-PBS, 250 μL/well, and incubated at 37° C. for 2-4 hours. The plate was then washed 3 times with 0.05% Tween 20-PBS on the Microplate Washer. The sample were mixed with human TIGIT ECD-mFc (working concentration: 100 ng/mL) and incubated for 0.5 hour. The mixed solution of antigen and antibody was added to the cell plate (50 μL/well). The cells were incubated with the mixture at 37° C. for 1.5-2 hours and then washed with 0.05% Tween 20-PBS for 3 times on the Microplate Washer. […] After washing 3 times with 0.05% Tween 20-PBS on the Microplate Washer, the plate was added with TMB chromogenic solution (KPL, 52-00-03), 50 μL/well, and incubated at 37° C. for 10 minutes. 1M HCL, 50 µL/well, was then added into the plate to terminate the reaction, and the OD450 nm was read by a microplate reader (Biotek, Powerwave HT).

[7] = target: T1, Fusion protein of extracellular domain …; assay: BIAcore; KD ratio, by the numbers to TIGIT-005-H2L1 of r33
[8] = target: T1, Fusion protein of extracellular domain …; assay: BIAcore; KD ratio to TIGIT-CHI-006

B1: TIGIT-070-H1L1 (antibody, V domains shown)
VH: EVQLVQSGAEVKKPGASVKVSCKASGYTFTNYYMHWVRQAPGQRLEWMGRIDPDSGGSKYNEKFKSRVTITVDKSASTAYMELSSLRSEDTAVYYCAREGHYGFYSDYWGQGTTVTVSS
VL: DIQMTQSPSSLSASVGDRVTITCRVSENIYSYLAWYQQKPGKSPKLLIYNAKTLAEGVPSRFSGSGSGTDFTLTISSLQPEDFATYYCQHHYGNPLTFGPGTKVDIK
notes: Humanized anti-TIGIT antibody
Fold change vs chimeric antibodies (KD) [1]: 0.59 fold

B2: SRF813-hIgG1 (antibody, V domains shown)
VH: QVQLVQSGAEVKKPGSSVKVSCKASGGTFSSAAISWVRQAPGQGLEWMGNIIPIVGIANYAQKFQGRVTITADESTSTAYMELSSLRSEDTAVYYCARDTGRGYTRHFWFDPWGQGTLVTVSS
VL: DIQMTQSPSSLSASVGDRVTITCRASQSISSYLNWYQQKPGKAPKLLIYAASSLQSGVPSRFSGSGSGTDFTLTISSLQPEDFATYYCQQSDILYTFGGGTKVEIK
notes: human IgG1 format by its name
EC50 (read off the curve) [2]: 1 to 1.4 nM

B3: RG6058-hIgG1 (antibody, V domains shown)
VH: EVQLQQSGPGLVKPSQTLSLTCAISGDSVSSNSAAWNWIRQSPSRGLEWLGKTYYRFKWYSDYAVSVKGRITINPDTSKNQFSLQLNSVTPEDTAVFYCTRESTTYDLLAGPFDYWGQGTLVTVSS
VL: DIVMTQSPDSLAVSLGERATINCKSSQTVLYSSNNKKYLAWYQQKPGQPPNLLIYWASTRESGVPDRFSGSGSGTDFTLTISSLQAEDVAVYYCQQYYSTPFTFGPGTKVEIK
notes: human IgG1 format by its name; also called Roche RG6058; control antibody RG6058
EC50 [3]: 0.0509 nM
EC50 [4]: 0.673 nM
EC50 (read off the curve) [5]: ~0.4 nM
IC50 (read off the curve) [6]: ~0.6 nM

B4: TIGIT-005-H2L1d (antibody, V domains shown)
VH: EVQLVQSGAEVKKPGASVKVSCKASGYAFTNYLIEWVRQAPGQRLEWMGVINPGSGGTNYKEKFKGRVTITADKSSSTAYMELSSLRSEDTAVYYCARGEYFFFDYWGQGTTVTVSS
VL: DIVMTQSPDSLAVSLGERATINCKASQHVSNAVAWYQHKPGQSPKLLIYSASYRYTGVPDRFSGSGSGTDFTLTISSLQAEDVAVYYCQQHYNTPHTFGGGTKVEIK
notes: Humanized anti-TIGIT antibody with NG-site mutation in VL
Fold change vs chimeric antibodies (KD) [7]: 1.21 fold

B5: TIGIT-006-H5L3 (antibody, V domains shown)
VH: EVQLQESGPGLVKPSETLSLTCAVSGYSMTSDYWNWIRQPPGKKLEYIGYISYSGRTYYNPSLKSRVTISRDTSKNQFSLKLSSVTAADTAVYYCARGDYSNYGGAMYDWGQGTTVTVSS
VL: DIVMTQSPDSLAVSLGERATINCRASQGVSTTIAWYQQKPGQSPKLLIYSASYRYTGVPRFSGSGSGTDFTLTISSLQAEDVAVYYCQQYYSSPFTFGGGTKVEIK
notes: Humanized anti-TIGIT antibody
Fold change vs chimeric antibodies (KD) [8]: 0.83 fold
